The numbers were not newly measured in patent US20230285262A1, “Skin Compositions and Uses” (Stemetrix, Inc., priority 2013, published 2023), which cites them from elsewhere.

The test system of data set [1] is erythropoiesis-stimulating response. The note with it: per mg of protein.
The mark [2] stands for this setting: commercial preparation judged 98% pure.

In the case of “EGF: human epidermal growth factor, commercial preparation judged 98% pure by PAGE and HPLC”, the ED50 with balb/c 3T3 cells (setting [2]) was not above 0.1 ng/mL. Moreover, the specific activity with balb/c 3T3 cells (corresponding to ED50) is listed as ≥ 1×10^7 units/mg.
In the case of “TGFβ3: human transforming growth factor beta-3, commercial preparation judged 98% pure by PAGE and HPLC”, in the data set with mouse HT-2 cells (setting [2]), the “expected ED50” value is 0.05 ng/mL. The specific activity in the data set with mouse HT-2 cells (corresponding to ED50) is given as ≥ 2×10^7 units/mg.
As to “Human urinary EPO: isolated human urinary EPO, international reference standard for EPO assays”, the specific activity entry in data set [1] is “about 70,000 U/mg”.
Regarding “IGF-1: insulin-like growth factor-1, commercial preparation judged 98% pure by PAGE and HPLC”, the ED50 with FDC-P1 cells (setting [2]) is 2.0 ng/mL. In addition, in the data set with FDC-P1 cells (corresponding to ED50), the specific activity is ≥ 5×10^5 units/mg.
